These results are taken from patent US20260055148A1 (USTAV ORGANICKE CHEMIE A BIOCHEMIE AV CR V V I, published 2026).

Positions count from the first letter of the chain named. Names may count otherwise.

Assay [1] deals with His-C3d N1134A (human) (UniProt P01024). Nature of the assay: SPR BIAcore T200, biotinylated ISG65-Avi immobilised, C3d N1134A as analyte; kon1.
The target is the same in assay [2]. Nature of the assay: SPR BIAcore T200, biotinylated ISG65-Avi immobilised, C3d N1134A as analyte; koff1. (In general: Surface plasmon resonance follows binding to a sensor surface in real time, without labels.)
For assay [3] the target is unchanged. Nature of the assay: SPR, relative to wild type C3d.
The target is the same in assay [4]. Kind of assay: SPR BIAcore T200, biotinylated ISG65-Avi immobilised, C3d N1134A as analyte.
The target of assay [5] is T1, His-C3d-Avi, biotinylated (human complement C3d with N-terminal His-tag and C-terminal Avi-tag) (human, UniProt P01024 996-1303, site-specific biotinylation of the C-terminal Avi-tag).
T1 construct: domain: C3d; SPR ligand for the ISG65 mutants; not shown: N-terminal His-tag (pET15b); C-terminal Avi-tag
Kind of assay: SPR BIAcore T200, biotinylated C3d-Avi immobilised, ISG65 mutant as analyte; kon1.

Assay [6] has as its target T1, His-C3d-Avi, biotinylated (human …). Kind of assay: SPR, relative to wild type ISG65.
Assay [7] has the same target. Nature of the assay: SPR BIAcore T200, biotinylated C3d-Avi immobilised, ISG65 mutant as analyte; koff1.
The target is the same in assay [8]. Kind of assay: SPR BIAcore T200, biotinylated C3d-Avi immobilised, ISG65 mutant as analyte.
Assay [9] deals with T2, C3b (human complement C3b) (human, UniProt P01024 23-667; P01024 749-1663).
T2 construct: domain: β-chain of C3b;domain: α-chain of C3b
Kind of assay: SPR BIAcore T200, biotinylated ISG65-Avi immobilised, C3b as analyte.

The target of assay [10] is T3, Native human complement C3 (human, UniProt P01024 23-667; P01024 672-1663).
T3 construct: mature; also called native C3; human C3
Nature of the assay: SPR BIAcore T200, biotinylated ISG65-Avi immobilised, native C3 as analyte; overall KD of a two-step fit (kon1, kon2, koff1, koff2).

Assay [11] has as its target T4, C3 (H2O) (human complement C3 with hydrolysed thioester) (human, UniProt P01024 23-667; P01024 672-1663).
T4 construct: mature
Nature of the assay: SPR BIAcore T200, biotinylated ISG65-Avi immobilised, C3 (H2O) as analyte; kon1.

For assay [12], the target named is T5, His-C3d (recombinant human complement C3d, wild type) (human, UniProt P01024 996-1303).
T5 construct: domain: C3d; Produced in E. coli; also called C3d Wt; TED; not shown: His-tag
Kind of assay: SPR, relative to wild type C3d.

Assay [13] concerns the target T6, His-C3d E1110A (human, UniProt P01024 996-1303).
T6 construct: domain: C3d; not shown: His-tag
Kind of assay: SPR, relative to wild type C3d.

The target in assay [14] is T7, His-C3d L1109A (human, UniProt P01024 996-1303).
T7 construct: domain: C3d; not shown: His-tag
Kind of assay: SPR, relative to wild type C3d.

For assay [15], the target named is T5, His-C3d (recombinant human complement …). Kind of assay: SPR BIAcore T200, biotinylated ISG65-Avi immobilised, C3d Wt as analyte.
Assay [16] has as its target T2, C3b (human complement C3b). Nature of the assay: SPR BIAcore T200, biotinylated ISG65-Avi immobilised, C3b as analyte; kon1.
Assay [17] addresses T3, Native human complement C3. Kind of assay: SPR BIAcore T200, biotinylated ISG65-Avi immobilised, native C3 as analyte; koff1; koff1, first step of the two-step fit.
Assay [18] addresses T4, C3 (H2O) (human complement C3 with …). Kind of assay: SPR BIAcore T200, biotinylated ISG65-Avi immobilised, C3 (H2O) as analyte; koff1.
In assay [19] the target is T8, C3c (fragment of human complement C3) (human, UniProt P01024 23-667; P01024 749-954; P01024 1321-1663).
T8 construct: domain: C3c
Nature of the assay: SPR, biotinylated ISG65 immobilised, C3c as analyte.

Assay [20] addresses T3, Native human complement C3. Nature of the assay: SPR BIAcore T200, biotinylated ISG65-Avi immobilised, native C3 as analyte; kon1; kon1, first step of the two-step fit.
Assay [21] deals with T5, His-C3d (recombinant human complement …). Kind of assay: SPR BIAcore T200, biotinylated ISG65-Avi immobilised, C3d Wt as analyte; kon1.
The target in assay [22] is T2, C3b (human complement C3b). Kind of assay: SPR BIAcore T200, biotinylated ISG65-Avi immobilised, C3b as analyte; koff1.
For assay [23], the target named is T4, C3 (H2O) (human complement C3 with …). Kind of assay: SPR BIAcore T200, biotinylated ISG65-Avi immobilised, C3 (H2O) as analyte.
For assay [24], the target named is T5, His-C3d (recombinant human complement …). Nature of the assay: SPR BIAcore T200, biotinylated ISG65-Avi immobilised, C3d Wt as analyte; koff1.
Assay [25] concerns the target T7, His-C3d L1109A. Kind of assay: SPR BIAcore T200, biotinylated ISG65-Avi immobilised, C3d L1109A as analyte.
Assay [26] addresses T9, C3a (ANA domain of human complement C3, released) (human, UniProt P01024 672-748).
T9 construct: domain: C3a
Kind of assay: SPR BIAcore T200, biotinylated ISG65-Avi immobilised, C3a as analyte.

For assay [27], the target named is T1, His-C3d-Avi, biotinylated (human …). Nature of the assay: SPR BIAcore T200, biotinylated C3d-Avi immobilised, ISG65 mutant as analyte; koff1; koff1, first step of the two-step fit.
For assay [28] the target is unchanged. Kind of assay: SPR BIAcore T200, biotinylated C3d-Avi immobilised, ISG65 mutant as analyte; overall KD of a two-step fit (kon1, kon2, koff1, koff2).
Assay [29] shares this target. Nature of the assay: SPR BIAcore T200, biotinylated C3d-Avi immobilised, ISG65 mutant as analyte; kon1; kon1, first step of the two-step fit.
In assay [30] the target is T2, C3b (human complement C3b). Nature of the assay: cell-based or functional assay.

T5 sequence (P01024 996-1303 limits assumed): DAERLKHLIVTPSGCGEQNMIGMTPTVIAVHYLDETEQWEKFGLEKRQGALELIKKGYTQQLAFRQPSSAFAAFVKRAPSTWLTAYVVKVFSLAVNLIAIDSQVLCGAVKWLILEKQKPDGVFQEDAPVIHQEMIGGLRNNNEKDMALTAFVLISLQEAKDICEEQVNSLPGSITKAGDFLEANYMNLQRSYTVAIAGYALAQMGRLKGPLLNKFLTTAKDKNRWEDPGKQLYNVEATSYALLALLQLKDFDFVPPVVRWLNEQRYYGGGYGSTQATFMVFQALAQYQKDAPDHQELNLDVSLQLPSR
T1 sequence (P01024 996-1303 limits assumed): as above
Chain of His-C3d N1134A (human) (P01024 996-1303, stated change not applied): as the sequence (P01024 996-1303 limits assumed) above
T2 sequence (P01024 23-667 limits assumed, chain 1 of 2): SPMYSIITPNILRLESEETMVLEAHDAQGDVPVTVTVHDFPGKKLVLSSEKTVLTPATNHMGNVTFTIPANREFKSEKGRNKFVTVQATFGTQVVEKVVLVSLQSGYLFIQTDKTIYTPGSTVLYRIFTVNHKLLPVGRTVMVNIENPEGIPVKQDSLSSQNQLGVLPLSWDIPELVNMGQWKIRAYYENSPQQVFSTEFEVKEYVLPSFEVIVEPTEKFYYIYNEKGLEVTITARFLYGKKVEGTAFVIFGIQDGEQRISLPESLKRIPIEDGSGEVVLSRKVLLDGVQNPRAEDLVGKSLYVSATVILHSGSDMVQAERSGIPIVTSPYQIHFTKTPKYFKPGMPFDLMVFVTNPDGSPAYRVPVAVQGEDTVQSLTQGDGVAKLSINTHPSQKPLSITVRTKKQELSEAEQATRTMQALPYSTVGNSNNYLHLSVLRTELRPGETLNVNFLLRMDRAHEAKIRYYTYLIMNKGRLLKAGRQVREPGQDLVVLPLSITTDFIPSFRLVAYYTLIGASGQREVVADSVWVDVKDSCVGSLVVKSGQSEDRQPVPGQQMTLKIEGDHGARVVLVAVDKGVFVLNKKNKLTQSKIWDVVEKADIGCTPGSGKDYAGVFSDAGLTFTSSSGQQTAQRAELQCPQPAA
T2 sequence (P01024 749-1663 limits assumed, chain 2 of 2): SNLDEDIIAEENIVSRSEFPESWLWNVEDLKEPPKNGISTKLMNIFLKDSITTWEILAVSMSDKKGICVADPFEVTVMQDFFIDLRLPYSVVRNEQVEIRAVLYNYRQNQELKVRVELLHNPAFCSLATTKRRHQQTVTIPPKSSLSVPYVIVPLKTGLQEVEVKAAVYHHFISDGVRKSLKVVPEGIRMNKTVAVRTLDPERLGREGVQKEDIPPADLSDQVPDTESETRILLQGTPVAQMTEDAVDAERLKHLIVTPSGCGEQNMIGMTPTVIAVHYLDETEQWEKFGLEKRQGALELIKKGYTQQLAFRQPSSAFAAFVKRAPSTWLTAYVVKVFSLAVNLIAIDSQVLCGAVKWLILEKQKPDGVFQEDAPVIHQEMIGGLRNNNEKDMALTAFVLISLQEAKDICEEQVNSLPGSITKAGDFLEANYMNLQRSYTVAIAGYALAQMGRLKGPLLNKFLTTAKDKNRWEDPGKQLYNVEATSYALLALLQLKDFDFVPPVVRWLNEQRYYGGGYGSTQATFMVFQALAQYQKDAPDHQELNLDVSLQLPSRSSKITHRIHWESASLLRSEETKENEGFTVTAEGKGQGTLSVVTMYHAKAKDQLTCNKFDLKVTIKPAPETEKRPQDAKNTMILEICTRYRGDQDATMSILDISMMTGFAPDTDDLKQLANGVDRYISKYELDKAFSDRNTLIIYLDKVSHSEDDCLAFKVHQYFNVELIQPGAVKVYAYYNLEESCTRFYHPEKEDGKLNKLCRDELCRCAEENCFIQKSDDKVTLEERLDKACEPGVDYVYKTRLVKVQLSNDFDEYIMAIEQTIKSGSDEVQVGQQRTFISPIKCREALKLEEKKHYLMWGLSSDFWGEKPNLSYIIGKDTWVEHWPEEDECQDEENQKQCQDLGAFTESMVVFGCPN
T4 sequence (P01024 23-667 limits assumed, chain 1 of 2): as the sequence (P01024 23-667 limits assumed, chain 1 of 2) above
T4 sequence (P01024 672-1663 limits assumed, chain 2 of 2): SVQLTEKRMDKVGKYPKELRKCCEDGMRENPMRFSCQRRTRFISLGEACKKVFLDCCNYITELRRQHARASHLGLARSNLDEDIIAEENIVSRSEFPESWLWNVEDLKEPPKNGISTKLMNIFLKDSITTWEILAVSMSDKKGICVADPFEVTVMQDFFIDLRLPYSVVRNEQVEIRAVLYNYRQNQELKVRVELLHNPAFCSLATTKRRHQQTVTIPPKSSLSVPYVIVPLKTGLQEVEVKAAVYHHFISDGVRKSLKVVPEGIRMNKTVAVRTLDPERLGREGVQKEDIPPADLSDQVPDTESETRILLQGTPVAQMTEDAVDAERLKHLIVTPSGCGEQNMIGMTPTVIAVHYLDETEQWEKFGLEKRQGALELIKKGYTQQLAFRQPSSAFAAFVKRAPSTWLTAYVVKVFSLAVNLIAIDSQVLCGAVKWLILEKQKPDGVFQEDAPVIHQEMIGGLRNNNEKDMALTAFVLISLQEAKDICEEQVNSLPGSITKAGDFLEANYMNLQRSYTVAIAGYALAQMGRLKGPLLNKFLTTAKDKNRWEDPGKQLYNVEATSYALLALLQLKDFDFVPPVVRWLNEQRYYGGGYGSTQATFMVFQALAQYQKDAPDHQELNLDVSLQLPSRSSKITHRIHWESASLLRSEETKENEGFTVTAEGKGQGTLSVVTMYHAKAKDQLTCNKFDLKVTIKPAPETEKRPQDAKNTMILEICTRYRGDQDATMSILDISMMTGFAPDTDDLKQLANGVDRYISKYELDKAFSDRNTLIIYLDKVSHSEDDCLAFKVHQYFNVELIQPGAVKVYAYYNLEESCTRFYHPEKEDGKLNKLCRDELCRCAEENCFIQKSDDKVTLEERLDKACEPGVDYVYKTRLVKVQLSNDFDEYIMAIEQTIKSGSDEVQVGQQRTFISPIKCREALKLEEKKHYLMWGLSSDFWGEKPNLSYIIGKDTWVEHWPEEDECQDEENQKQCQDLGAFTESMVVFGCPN
T3 sequence (P01024 23-667 limits assumed, chain 1 of 2): as the sequence (P01024 23-667 limits assumed, chain 1 of 2) above
T3 sequence (P01024 672-1663 limits assumed, chain 2 of 2): as the sequence (P01024 672-1663 limits assumed, chain 2 of 2) above
T7 sequence (P01024 996-1303 L1109A limits assumed): as the sequence (P01024 996-1303 limits assumed) above, with L114A counted along it
T6 sequence (P01024 996-1303 E1110A limits assumed): as the sequence (P01024 996-1303 limits assumed) above, with E115A counted along it
T9 sequence (P01024 672-748 limits assumed): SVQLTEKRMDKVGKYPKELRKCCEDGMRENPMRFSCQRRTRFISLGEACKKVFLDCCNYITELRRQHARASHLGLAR
T8 sequence (P01024 23-667 limits assumed, chain 1 of 3): as the sequence (P01024 23-667 limits assumed, chain 1 of 2) above
T8 sequence (P01024 749-954 limits assumed, chain 2 of 3): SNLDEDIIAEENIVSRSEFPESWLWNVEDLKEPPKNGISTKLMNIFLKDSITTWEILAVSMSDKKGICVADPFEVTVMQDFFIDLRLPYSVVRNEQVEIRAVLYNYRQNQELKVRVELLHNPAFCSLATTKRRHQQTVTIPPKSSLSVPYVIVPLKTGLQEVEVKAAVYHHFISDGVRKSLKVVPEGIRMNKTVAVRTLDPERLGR
T8 sequence (P01024 1321-1663 limits assumed, chain 3 of 3): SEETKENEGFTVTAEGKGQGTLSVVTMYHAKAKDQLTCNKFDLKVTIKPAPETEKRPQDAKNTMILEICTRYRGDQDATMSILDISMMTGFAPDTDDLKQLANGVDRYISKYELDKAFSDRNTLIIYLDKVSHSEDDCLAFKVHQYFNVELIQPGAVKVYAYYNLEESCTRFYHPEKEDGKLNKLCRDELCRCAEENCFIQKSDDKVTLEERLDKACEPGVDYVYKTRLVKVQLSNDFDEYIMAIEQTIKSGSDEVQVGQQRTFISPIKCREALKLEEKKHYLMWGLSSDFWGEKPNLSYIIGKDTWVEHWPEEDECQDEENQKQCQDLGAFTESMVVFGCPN

In the case of “His-ISG65 18-363-Avi, biotinylated at the C-terminal Avi-tag (receptor)”, in assay [1], the kon (in general, a measure of how fast the partners come together) is 1.89e+06 M⁻¹ s⁻¹. The koff (as a rule, the first-order rate constant of dissociation) in [2] is 0.0542 s⁻¹. For the same molecule, in assay [3], the ISG65 binding (%) came to 25%. In addition, the equilibrium dissociation constant (Kd) (usually the constant that tells how readily two partners part at equilibrium) in assay [4] was 28.6 nM.

B1: His-ISG65 18-363 T297A (receptor)
chain: MGSSHHHHHHSSGLVPRGSHMLLVIGSEDNRVPGDKKLTKEGAAALCKMKHLADKVAKERSQELKDRTQNFAGYIEFELYRIDYWLEKLNGPKGRKDGYAKLSDSDIEKVKEIFNKAKDGITKQLPEAKKAGEEAGKLHTEVKKAAENARGQDLDDDTAKSTGLYRVLNWYCITKEERHNATPNCDGIQFRKHYLSVNRSAIDCSSTSYEENYDWSANALQVALNSWEDVKPKKLESAGSDKNCNIGQSSESHPCTMTEEWQTPYKETVEKLRELEDAYQRGKKAHDAMLGYANTAYAVNAKVEQEKPLTEVIAAAKEAGKKGAKIIIPAAAPATPTNSTKNDDSAPTEHVDRGIATNETQVEVGID
notes: also called ISG65 T297A
In assay [5], B1 registered a kon of 171000 M⁻¹ s⁻¹. Besides, the “C3d binding (%)” value in [6] came to 15%. For the same molecule, the koff in [7] is 0.05 s⁻¹. In [8], this molecule registered a Kd of 182 nM and a koff2 of 0.002 s⁻¹.

B2: His-ISG65 18-363-Avi, biotinylated at the C-terminal Avi-tag (receptor)
chain: B1 chain with A301T
modifications: site-specific biotinylation of the C-terminal Avi-tag
notes: SPR ligand captured on a Series S sensor chip CAP; also called ISG65-Avi; biotinylated ISG65; not shown: C-terminal Avi-tag
Regarding B2, the Kd in [9] was determined as 80.9 nM; in assay [10], 129 nM; in assay [15] it was 7.2 nM; in assay [23], 18 nM; in assay [25] it was 52.9 nM; in [26], 18100 nM. Further, the kon in assay [11] came to 942000 M⁻¹ s⁻¹; in assay [16], 262000 M⁻¹ s⁻¹; in [20], 81800 M⁻¹ s⁻¹; in assay [21] it was 5.24e+06 M⁻¹ s⁻¹. Moreover, the figures for the “ISG65 binding (%)” value in [12], in assay [13] and in assay [14] were 100%, 8% and 45%, respectively. Besides, the koff amounted to 0.0543 s⁻¹ in assay [17], 0.017 s⁻¹ in assay [18], 0.0212 s⁻¹ in assay [22] and 0.0379 s⁻¹ in assay [24]. In assay [19], the binding result is recorded as “no binding (tested: 280 nM)”.

B3: His-ISG65 18-363 W211A (receptor)
chain: B1 chain with W215A, A301T
notes: also called ISG65 W211A
In the case of B3, the koff in [27] was found to be 0.16 s⁻¹. This molecule also returned a Kd in assay [28] of 66.8 nM. The “C3d binding (%)” value in [6] is 42%. In assay [8], this molecule yielded a koff2 of 0.39 s⁻¹. This molecule also yielded a kon in assay [29] of 320000 M⁻¹ s⁻¹.

B4: His-ISG65 18-363 Y70A (receptor)
chain: B1 chain with Y74A, A301T
notes: also called ISG65 Y70A
B4 came in with a koff in assay [27] of 0.14 s⁻¹. Moreover, the Kd in assay [28] worked out at 78.2 nM. In addition, in [6], the “C3d binding (%)” value was 36%. The molecule further yielded a koff2 in assay [8] of 0.58 s⁻¹. This molecule showed a kon in [29] of 118000 M⁻¹ s⁻¹.

B5: ISG65 M2 (thermostable mutant of the ISG65 extracellular domain 18-363 with N-terminal His-tag) (receptor)
chain: MGSSHHHHHHSSGLVPRGSHMLLVIGSEDNRVPGDKKLTKEGAAALCKMKHLADKVAKERSQELKDRTQNFAGYIEFELYRIDYWLEKLNGPKGRKDGYAKLSDSDIKKVKEIFEKAKDGITKQLPEAKKAAEEAEKLHQEVKEAAEKARGQDLDDDTAKSTGLYRVLNWYCITKEERHNATPNCDGIQFRKHYLSVNRSAIDCSSTSYEENYDWSANALQVALNSWEDKKPKKLESAGSDKNCNIGQSSESHPCTMTEEWQTHYKETIEKLRELEEAYQRGKKAHDDMLGYANTAYAVNTKVEQEKPLSEVIAAAKEAGKKGAKIIIPAAAPATPTNSTKNDDSAPTEHVDRGIATNETQVEVGID
On to B5, for which the “relative AP50 of human plasma, day 0” value in [30] worked out at 15 fold.
